Experimental data from patent US20200317768A1 (published 2020).
Residue numbers refer to the chain shown, from its start. Values belong to the binder of their own block, whether it stands above or below them.

Legend:
[1] = target: T1, Human latent myostatin (human, UniProt O14793 25-266; O14793 267-375); assay: SPR (BIACORE), additional dissociation phase at pH5.8 after dissociation at pH7.4, Scrubber 2.0 fit
T1 construct: Biotinylated in the ELISAs; also called human myostatin latent form
T1 sequence 1: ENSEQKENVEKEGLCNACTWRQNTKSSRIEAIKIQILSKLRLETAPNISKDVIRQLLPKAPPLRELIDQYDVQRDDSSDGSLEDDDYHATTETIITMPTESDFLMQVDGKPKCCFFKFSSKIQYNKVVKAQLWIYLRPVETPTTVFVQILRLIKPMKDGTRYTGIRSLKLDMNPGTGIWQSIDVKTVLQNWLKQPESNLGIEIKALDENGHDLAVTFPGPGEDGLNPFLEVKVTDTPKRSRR
T1 sequence 2: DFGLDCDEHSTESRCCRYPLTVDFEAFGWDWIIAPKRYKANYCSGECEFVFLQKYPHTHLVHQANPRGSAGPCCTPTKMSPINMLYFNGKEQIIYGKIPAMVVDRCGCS
Experimental: Each amino acid in the CDRs was individually mutated to histidine using In-Fusion HD Cloning Kit (Clontech Inc, or Takara Bio company) according to the manufacturer's instructions. […] All histidine-substituted variants were evaluated by a modified BIACORE® assay as compared to that described above. Briefly, an additional dissociation phase at pH5.8 was integrated into the BIACORE® assay immediately after the dissociation phase at pH7.4. This is to assess the pH-dependent dissociation between antibody (Ab) and antigen (Ag) from the complexes formed at pH7.4 as opposed to the corresponding dissociation at pH5.8. The dissociation rate at pH5.8 buffer was determined by processing and fitting data using the Scrubber 2.0 (BioLogic Software) curve fitting software.
Antibodies with a combination of these mutations in the CDRs were then generated.

[2] = target: T2, Human latent myostatin (human, UniProt O14793 25-266; O14793 267-375); assay: SPR 37C; KD pH 5.8 / KD pH 7.4
T2 construct: also called human myostatin latent form
T2 sequence 1: T1 sequence 1
T2 sequence 2: T1 sequence 2
Experimental: (§1) ProA/G (Pierce) was immobilized onto all flow cells of a CM4 chip using an amine coupling kit (GE Healthcare). All antibodies and analytes were prepared in ACES pH7.4 or pH5.8 buffer containing 20 mM ACES, 150 mM NaCl, 1.2 mM CaCl₂, 0.05% TWEEN®) 20, 0.005% NaN₃. […] Human, cyno, and mouse latent myostatin was injected at 3.125 to 50 nM prepared by two-fold serial dilution, followed by dissociation. The sensor surface was regenerated each cycle with 10 mM Glycine HCl pH1.5. Binding affinity was determined by processing and fitting the data to a 1:1 binding model using BIACORE® T200 Evaluation software, version 2.0 (GE Healthcare).

[3] = target: T3, Cynomolgus monkey latent myostatin (cynomolgus monkey, UniProt Q95J86 25-266; Q95J86 267-375); assay: SPR 37C; KD pH 5.8 / KD pH 7.4
T3 construct: Latent form = complex of two propeptides and the mature dimer; also called Cyno latent myostatin
T3 sequence 1: T1 sequence 1 with V52A
T3 sequence 2: T1 sequence 2
Experimental: as §1

[4] = target: T4, Mouse latent myostatin (mouse, UniProt O08689 26-267; O08689 268-376); assay: SPR 37C; KD pH 5.8 / KD pH 7.4
T4 construct: Latent form = complex of two propeptides and the mature dimer
T4 sequence 1: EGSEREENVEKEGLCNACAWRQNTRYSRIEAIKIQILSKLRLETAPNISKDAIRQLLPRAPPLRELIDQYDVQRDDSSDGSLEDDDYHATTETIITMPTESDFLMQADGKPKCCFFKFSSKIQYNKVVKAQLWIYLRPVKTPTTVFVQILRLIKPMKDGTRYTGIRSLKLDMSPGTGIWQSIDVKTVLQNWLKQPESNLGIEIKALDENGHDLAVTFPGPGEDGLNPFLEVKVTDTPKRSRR
T4 sequence 2: T1 sequence 2
Experimental: as §1

[5] = target: T2, Human latent myostatin; assay: SPR (BIACORE T200) 37C, pH 5.8, antibody captured by ProA/G
Experimental: as §1

[6] = target: T3, Cynomolgus monkey latent myostatin; assay: as above
Experimental: as §1

[7] = target: T4, Mouse latent myostatin; assay: as above
Experimental: as §1

[8] = target: T2, Human latent myostatin; assay: SPR (BIACORE T200) 37C, pH 7.4, antibody captured by ProA/G
Experimental: as §1

[9] = target: T3, Cynomolgus monkey latent myostatin; assay: as above
Experimental: as §1

[10] = target: T4, Mouse latent myostatin; assay: as above
Experimental: as §1

ratio of KD at pH 5.8/pH 7.4 [2]: 92
ratio of KD at pH 5.8/pH 7.4 [3]: 41
ratio of KD at pH 5.8/pH 7.4 [4]: 38
Kd [5]: 25.5 nM
Kd [6]: 14.1 nM
Kd [7]: 9.88 nM
Kd [8]: 0.276 nM
Kd [9]: 0.34 nM
Kd [10]: 0.259 nM
B2: MS_M103240H1246-SG1/M103202L1045-SK1 (antibody, human IgG1, kappa, V domains shown)
VH: QVQLVESGGGLVQPGGSLRLSCAVSGIDLSHEDISWVRQAPGKGLEWVSIISYAGSKYYASWAKGRLTISKDTSKNQVVLTMTNMDPVDTATYYCARGVPAYSHGGDLWGQGTLVTVSS
VL: DIVMTQSPATLSLSPGERATLSCTTSQSVYHENWLSWFQQKPGQPPKLLIYWASTLAYGVPSRFSGSGSGTDFTLTISSLQPEDAATYYCAGGYGGGRYAFGQGTKVEIKR
notes: also called MS1032LO25-SG1

koff [1]: 8.58e-05 s⁻¹
B6: Ab006 (M103205H000 / M103202L008) (antibody, human IgG1, kappa, V domains shown)
VH: QVTLKESGPVLVKPTETLTLTCTVSGIDLSSYDISWVRQAPGKGLEWVGIISYAGSTYYASWAKGRLTISKDTSKNQVVLTMTNMDPVDTATYYCARGVPAYSTGGDLWGQGTLVTVSS
VL: B2 VL with T24Q, T25S, E32N, Y58S, R98L
notes: Histidine-substituted variant of MS1032LO00-SG1

ratio of KD at pH 5.8/pH 7.4 [2]: 168
ratio of KD at pH 5.8/pH 7.4 [3]: 109
ratio of KD at pH 5.8/pH 7.4 [4]: 106
Kd [5]: 45.8 nM
Kd [6]: 35.6 nM
Kd [7]: 28.7 nM
Kd [8]: 0.273 nM
Kd [9]: 0.326 nM
Kd [10]: 0.271 nM
B7: MS_M103240H795-SG1/M103202L1045-SK1 (antibody, human IgG1, kappa)
heavy: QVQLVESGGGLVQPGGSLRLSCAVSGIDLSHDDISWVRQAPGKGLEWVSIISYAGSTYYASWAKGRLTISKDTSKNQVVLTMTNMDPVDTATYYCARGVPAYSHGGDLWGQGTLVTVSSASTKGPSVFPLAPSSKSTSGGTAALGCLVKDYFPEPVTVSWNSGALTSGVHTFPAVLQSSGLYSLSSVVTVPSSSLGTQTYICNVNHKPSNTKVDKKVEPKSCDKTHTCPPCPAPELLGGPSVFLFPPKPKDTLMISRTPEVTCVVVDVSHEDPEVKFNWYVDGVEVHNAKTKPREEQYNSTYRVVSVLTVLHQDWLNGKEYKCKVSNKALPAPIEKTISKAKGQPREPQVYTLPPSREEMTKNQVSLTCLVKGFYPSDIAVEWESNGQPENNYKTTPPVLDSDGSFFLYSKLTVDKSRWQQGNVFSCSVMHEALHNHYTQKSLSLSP
light: DIVMTQSPATLSLSPGERATLSCTTSQSVYHENWLSWFQQKPGQPPKLLIYWASTLAYGVPSRFSGSGSGTDFTLTISSLQPEDAATYYCAGGYGGGRYAFGQGTKVEIKRTVAAPSVFIFPPSDEQLKSGTASVVCLLNNFYPREAKVQWKVDNALQSGNSQESVTEQDSKDSTYSLSSTLTLSKADYEKHKVYACEVTHQGLSSPVTKSFNRGEC
notes: also called MS1032LO19-SG1

Further lines, the binder ahead of its results:

B1: Ab003 (M103205H009 / M103202L000) (antibody, human IgG1, kappa, V domains shown)
VH: B6 VH with Y53H
VL: B2 VL with T24Q, T25S, H31D, E32N, Y58S, R98L
notes: as for B6
koff [1]: 0.00088 s⁻¹

B3: Ab004 (M103205H026 / M103202L000) (antibody, human IgG1, kappa, V domains shown)
VH: B6 VH with Y102H
VL: B2 VL with T24Q, T25S, H31D, E32N, Y58S, R98L
notes: as for B6
koff [1]: 0.000186 s⁻¹

B4: Ab005 (M103205H028 / M103202L000) (antibody, human IgG1, kappa, V domains shown)
VH: B6 VH with T104H
VL: B2 VL with T24Q, T25S, H31D, E32N, Y58S, R98L
notes: as for B6
koff [1]: 7.63e-05 s⁻¹

B5: Ab007 (M103205H028 / M103202L008) (antibody, human IgG1, kappa, V domains shown)
VH: B6 VH with T104H
VL: B2 VL with T24Q, T25S, E32N, Y58S, R98L
notes: as for B6
koff [1]: 0.000415 s⁻¹
